Laboratory results as given in publication PMC9482650, “Quantitative fragmentomics allow affinity mapping of interactomes” (Nature Communications, 2022).

Tests used:
Experiment in all cases: holdup assay
Parameters in all cases: key: below the threshold = too weak to quantify, mostly under pKd 3.1 to 4
Settings in all cases: plain residues with an end cap or a label only (N-terminal biotin on a linker: ado-ado)
FRMPD3, Q5JV73 = biological target: FRMPD3, Q5JV73
LIN7B, Q9HAP6 = biological target: T1, LIN7B, Q9HAP6
T1 sequence (Q9HAP6 88-185, limits assumed, looked up): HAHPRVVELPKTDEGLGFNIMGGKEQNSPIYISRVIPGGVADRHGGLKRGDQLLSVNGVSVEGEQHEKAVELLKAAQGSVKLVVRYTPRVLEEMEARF

DLG2_2, Q15700 = biological target: DLG2_2, Q15700
DLG2_2, Q15700, sequence (Q15700 189-283): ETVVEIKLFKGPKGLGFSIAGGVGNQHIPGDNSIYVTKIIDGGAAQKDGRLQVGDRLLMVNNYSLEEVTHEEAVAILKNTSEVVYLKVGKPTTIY

APBA3_1, O96018 = biological target: T2, APBA3_1, O96018
T2 sequence (O96018 389-490, limits assumed, looked up): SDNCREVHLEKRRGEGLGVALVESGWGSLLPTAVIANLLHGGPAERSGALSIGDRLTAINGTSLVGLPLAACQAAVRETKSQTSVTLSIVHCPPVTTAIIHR

HTRA3, P83110 = biological target: T3, HTRA3, P83110
T3 sequence (P83110 354-453, limits assumed, looked up): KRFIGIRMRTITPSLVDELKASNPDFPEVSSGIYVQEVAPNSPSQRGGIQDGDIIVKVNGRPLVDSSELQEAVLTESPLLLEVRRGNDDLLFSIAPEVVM

HTRA1, Q92743 = biological target: HTRA1, Q92743
HTRA1, Q92743, sequence (Q92743 360-477): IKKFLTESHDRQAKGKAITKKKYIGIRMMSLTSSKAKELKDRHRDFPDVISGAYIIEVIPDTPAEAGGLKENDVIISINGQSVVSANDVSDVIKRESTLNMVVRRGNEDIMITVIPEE

GRIP1_4, Q9Y3R0 = biological target: T4, GRIP1_4, Q9Y3R0
T4 sequence (Q9Y3R0 467-571, limits assumed, looked up): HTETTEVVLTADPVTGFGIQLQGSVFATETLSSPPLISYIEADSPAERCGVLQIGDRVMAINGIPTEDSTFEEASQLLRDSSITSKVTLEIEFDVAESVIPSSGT

APBA2_2, Q99767 = biological target: T5, APBA2_2, Q99767
T5 sequence (Q99767 654-744, limits assumed, looked up): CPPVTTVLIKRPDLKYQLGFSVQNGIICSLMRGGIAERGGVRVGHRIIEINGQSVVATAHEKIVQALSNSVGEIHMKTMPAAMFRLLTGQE

IL16_4, Q14005 = biological target: IL16_4, Q14005
IL16_4, Q14005, sequence (Q14005 1229-1329): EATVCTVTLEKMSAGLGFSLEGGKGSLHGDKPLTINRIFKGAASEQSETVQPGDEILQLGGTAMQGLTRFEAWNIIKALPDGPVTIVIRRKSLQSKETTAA

MPDZ_5, O75970 = biological target: T6, MPDZ_5, O75970
T6 sequence (O75970 695-796, limits assumed, looked up): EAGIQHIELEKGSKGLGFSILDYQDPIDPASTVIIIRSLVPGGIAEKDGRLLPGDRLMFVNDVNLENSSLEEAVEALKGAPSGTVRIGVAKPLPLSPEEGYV

NHERF3_3, Q5T2W1 = biological target: T7, NHERF3_3, Q5T2W1
T7 sequence (Q5T2W1 238-333, limits assumed, looked up): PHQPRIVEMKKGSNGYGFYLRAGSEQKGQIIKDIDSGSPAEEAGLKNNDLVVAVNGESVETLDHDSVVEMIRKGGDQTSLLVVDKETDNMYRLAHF

PDZRN4_1, Q6ZMN7 = biological target: PDZRN4_1, Q6ZMN7
PDZRN4_1, Q6ZMN7, sequence (Q6ZMN7 213-318): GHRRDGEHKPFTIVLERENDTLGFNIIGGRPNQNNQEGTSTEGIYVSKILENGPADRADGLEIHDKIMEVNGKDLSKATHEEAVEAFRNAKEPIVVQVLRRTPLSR

DLG4_2, P78352 = biological target: DLG4_2, P78352
DLG4_2, P78352, sequence (P78352 155-259): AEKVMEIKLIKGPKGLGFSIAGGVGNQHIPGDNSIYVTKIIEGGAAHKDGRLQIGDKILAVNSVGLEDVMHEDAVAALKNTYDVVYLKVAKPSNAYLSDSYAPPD

PDZD7_3, Q9H5P4 = biological target: T8, PDZD7_3, Q9H5P4
T8 sequence (Q9H5P4 857-944, limits assumed, looked up): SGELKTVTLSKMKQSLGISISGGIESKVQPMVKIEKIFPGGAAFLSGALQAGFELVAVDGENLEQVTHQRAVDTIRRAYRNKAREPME

DLG1_1, Q12959 = biological target: DLG1_1, Q12959
ARHGEF12, Q9NZN5-2 = biological target: ARHGEF12, Q9NZN5-2
ARHGEF12, Q9NZN5-2, sequence (Q9NZN5 other isoform, or with tags, fused parts or gaps): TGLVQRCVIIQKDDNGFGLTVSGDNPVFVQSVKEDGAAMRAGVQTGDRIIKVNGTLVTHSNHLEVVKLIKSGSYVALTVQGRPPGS

Inadl_5, Q8NI35 = biological target: Inadl_5, Q8NI35
Inadl_5, Q8NI35, sequence (Q8NI35 673-780): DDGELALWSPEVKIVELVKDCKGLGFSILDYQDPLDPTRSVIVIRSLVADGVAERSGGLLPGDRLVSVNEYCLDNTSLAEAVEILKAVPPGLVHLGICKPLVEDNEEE

LDB3, O75112 = biological target: LDB3, O75112
LDB3, O75112, sequence (O75112 1-94): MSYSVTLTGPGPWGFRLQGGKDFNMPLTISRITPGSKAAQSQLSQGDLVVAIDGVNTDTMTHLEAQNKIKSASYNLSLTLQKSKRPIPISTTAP

LNX1_3, Q8TBB1 = biological target: LNX1_3, Q8TBB1
LNX1_3, Q8TBB1, sequence (Q8TBB1 500-596): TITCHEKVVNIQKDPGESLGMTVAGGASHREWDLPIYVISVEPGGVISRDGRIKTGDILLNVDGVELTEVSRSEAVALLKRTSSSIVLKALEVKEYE

Inadl_10, Q8NI35 = biological target: Inadl_10, Q8NI35
Inadl_10, Q8NI35, sequence (Q8NI35 1673-1763): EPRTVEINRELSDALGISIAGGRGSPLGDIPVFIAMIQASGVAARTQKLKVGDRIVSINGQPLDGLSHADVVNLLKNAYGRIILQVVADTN

LIN7C, Q9NUP9 = biological target: T9, LIN7C, Q9NUP9
T9 sequence (Q9NUP9 88-185, limits assumed, looked up): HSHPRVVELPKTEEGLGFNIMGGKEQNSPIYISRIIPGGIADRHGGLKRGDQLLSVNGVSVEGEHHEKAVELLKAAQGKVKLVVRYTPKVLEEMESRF

DLG4_3, P78352 = biological target: DLG4_3, P78352
DLG4_3, P78352, sequence (P78352 306-403): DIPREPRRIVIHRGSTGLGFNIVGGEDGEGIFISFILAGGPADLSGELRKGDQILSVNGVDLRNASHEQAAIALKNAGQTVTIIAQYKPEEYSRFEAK

PDLIM1, O00151 = biological target: PDLIM1, O00151
PDLIM1, O00151, sequence (O00151 1-87): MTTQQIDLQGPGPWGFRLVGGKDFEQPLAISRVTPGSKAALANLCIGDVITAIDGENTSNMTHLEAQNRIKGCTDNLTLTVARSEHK

MAGI2_4, Q86UL8 = biological target: MAGI2_4, Q86UL8
MAGI2_4, Q86UL8, sequence (Q86UL8 772-865): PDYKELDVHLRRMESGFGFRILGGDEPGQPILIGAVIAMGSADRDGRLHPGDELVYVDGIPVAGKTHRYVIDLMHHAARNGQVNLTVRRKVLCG

AHNAK1, Q09666 = biological target: AHNAK1, Q09666
AHNAK1, Q09666, sequence (Q09666 4-100): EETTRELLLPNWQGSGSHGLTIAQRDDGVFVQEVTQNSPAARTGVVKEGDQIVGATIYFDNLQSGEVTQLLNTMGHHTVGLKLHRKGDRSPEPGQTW

GRIP2_7, Q9C0E4 = biological target: GRIP2_7, Q9C0E4
GRIP2_7, Q9C0E4, sequence (Q9C0E4 934-1023): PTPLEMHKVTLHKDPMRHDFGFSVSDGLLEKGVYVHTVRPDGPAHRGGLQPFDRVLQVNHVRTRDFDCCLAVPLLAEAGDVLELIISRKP

MAGI2_3, Q86UL8 = biological target: MAGI2_3, Q86UL8
MAGI2_3, Q86UL8, sequence (Q86UL8 600-682): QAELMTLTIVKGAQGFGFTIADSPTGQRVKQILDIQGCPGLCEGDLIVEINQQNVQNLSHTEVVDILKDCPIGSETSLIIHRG

IL16_1, Q14005 = biological target: IL16_1, Q14005
IL16_1, Q14005, sequence (Q14005 210-306): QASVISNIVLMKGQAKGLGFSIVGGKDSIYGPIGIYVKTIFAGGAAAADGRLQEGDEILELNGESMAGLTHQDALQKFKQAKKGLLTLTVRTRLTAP

LAP2, Q96RT1 = biological target: LAP2, Q96RT1
LAP2, Q96RT1, sequence (Q96RT1 other isoform, or with tags, fused parts or gaps): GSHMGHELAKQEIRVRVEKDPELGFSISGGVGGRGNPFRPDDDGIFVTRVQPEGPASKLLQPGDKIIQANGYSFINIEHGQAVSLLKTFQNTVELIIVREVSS

FRMPD3, Q5JV73, sequence (Q5JV73 12-100): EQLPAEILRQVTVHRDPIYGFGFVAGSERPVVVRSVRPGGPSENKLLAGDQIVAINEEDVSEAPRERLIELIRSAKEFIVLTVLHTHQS

## GQETPLNTFC [MAP7D2, Q96T17]
FRMPD3, Q5JV73
  pKd: below the threshold
LIN7B, Q9HAP6
  pKd: 3.81
DLG2_2, Q15700
  pKd: below the threshold
APBA3_1, O96018
  pKd: below the threshold
HTRA3, P83110
  pKd: 4.55
HTRA1, Q92743
  pKd: 3.79
GRIP1_4, Q9Y3R0
  pKd: below the threshold
APBA2_2, Q99767
  pKd: below the threshold
IL16_4, Q14005
  pKd: below the threshold
MPDZ_5, O75970
  pKd: below the threshold
NHERF3_3, Q5T2W1
  pKd: below the threshold
PDZRN4_1, Q6ZMN7
  pKd: below the threshold
DLG4_2, P78352
  pKd: 3.48
PDZD7_3, Q9H5P4
  pKd: 4.29
DLG1_1, Q12959
  pKd: below the threshold
ARHGEF12, Q9NZN5-2
  pKd: 3.77
Inadl_5, Q8NI35
  pKd: below the threshold
LDB3, O75112
  pKd: below the threshold
LNX1_3, Q8TBB1
  pKd: below the threshold
Inadl_10, Q8NI35
  pKd: below the threshold
LIN7C, Q9NUP9
  pKd: below the threshold
DLG4_3, P78352
  pKd: 3.6
PDLIM1, O00151
  pKd: below the threshold
MAGI2_4, Q86UL8
  pKd: below the threshold
AHNAK1, Q09666
  pKd: below the threshold
GRIP2_7, Q9C0E4
  pKd: below the threshold
MAGI2_3, Q86UL8
  pKd: below the threshold
IL16_1, Q14005
  pKd: below the threshold
LAP2, Q96RT1
  pKd: below the threshold

## RPGFASESKV [ADRB1, P08588]
FRMPD3, Q5JV73
  pKd: below the threshold
LIN7B, Q9HAP6
  pKd: below the threshold
DLG2_2, Q15700
  pKd: 3.87
APBA3_1, O96018
  pKd: below the threshold
HTRA3, P83110
  pKd: below the threshold
HTRA1, Q92743
  pKd: below the threshold
GRIP1_4, Q9Y3R0
  pKd: below the threshold
APBA2_2, Q99767
  pKd: below the threshold
IL16_4, Q14005
  pKd: below the threshold
MPDZ_5, O75970
  pKd: below the threshold
NHERF3_3, Q5T2W1
  pKd: below the threshold
PDZRN4_1, Q6ZMN7
  pKd: 3.69
DLG4_2, P78352
  pKd: 4.22
PDZD7_3, Q9H5P4
  pKd: 3.71
DLG1_1, Q12959
  pKd: 3.71
ARHGEF12, Q9NZN5-2
  pKd: 3.52
Inadl_5, Q8NI35
  pKd: below the threshold
LDB3, O75112
  pKd: below the threshold
LNX1_3, Q8TBB1
  pKd: below the threshold
Inadl_10, Q8NI35
  pKd: below the threshold
LIN7C, Q9NUP9
  pKd: below the threshold
DLG4_3, P78352
  pKd: below the threshold
PDLIM1, O00151
  pKd: below the threshold
MAGI2_4, Q86UL8
  pKd: below the threshold
AHNAK1, Q09666
  pKd: below the threshold
GRIP2_7, Q9C0E4
  pKd: below the threshold
MAGI2_3, Q86UL8
  pKd: below the threshold
IL16_1, Q14005
  pKd: 4.36
LAP2, Q96RT1
  pKd: 3.95

## QYPGSPDSWV [PKP4, Q99569]
FRMPD3, Q5JV73
  pKd: 3.47
LIN7B, Q9HAP6
  pKd: below the threshold
DLG2_2, Q15700
  pKd: 4.03
APBA3_1, O96018
  pKd: 3.63
HTRA3, P83110
  pKd: 5.54
HTRA1, Q92743
  pKd: 4.78
GRIP1_4, Q9Y3R0
  pKd: below the threshold
APBA2_2, Q99767
  pKd: below the threshold
IL16_4, Q14005
  pKd: below the threshold
MPDZ_5, O75970
  pKd: 3.58
NHERF3_3, Q5T2W1
  pKd: below the threshold
PDZRN4_1, Q6ZMN7
  pKd: 4.06
DLG4_2, P78352
  pKd: 4.62
PDZD7_3, Q9H5P4
  pKd: 4.11
DLG1_1, Q12959
  pKd: 3.96
ARHGEF12, Q9NZN5-2
  pKd: 3.54
Inadl_5, Q8NI35
  pKd: 3.87
LDB3, O75112
  pKd: 3.82
LNX1_3, Q8TBB1
  pKd: below the threshold
Inadl_10, Q8NI35
  pKd: 3.75
LIN7C, Q9NUP9
  pKd: 3.94
DLG4_3, P78352
  pKd: below the threshold
PDLIM1, O00151
  pKd: 4.14
MAGI2_4, Q86UL8
  pKd: 4.32
AHNAK1, Q09666
  pKd: 3.51
GRIP2_7, Q9C0E4
  pKd: 3.96
MAGI2_3, Q86UL8
  pKd: below the threshold
IL16_1, Q14005
  pKd: 4.13
LAP2, Q96RT1
  pKd: 5.5
